In paper PMC5676040, “The NOX Family of Proteins Is Also Present in Bacteria” (mBio, 2017):
pIC50: −log10 of the molar value.

How the values were obtained:
[1] = biological target: T1, SpNOX (Streptococcus pneumoniae, UniProt Q8CZ28); assay: cytochrome c reduction, absorbance at […] nm; assay type: biochemical; settings: read-out: 50% inhibitory concentration
T1 construct: gene spr0531; full-length membrane protein, codon-optimized synthetic gene, N-terminal His tag (pQLink N), E. coli BL21(DE3) pLysS, purified in MNG detergent; bis-His heme ligands H69, H83, H129, H142
T1 sequence (Q8CZ28 1-400): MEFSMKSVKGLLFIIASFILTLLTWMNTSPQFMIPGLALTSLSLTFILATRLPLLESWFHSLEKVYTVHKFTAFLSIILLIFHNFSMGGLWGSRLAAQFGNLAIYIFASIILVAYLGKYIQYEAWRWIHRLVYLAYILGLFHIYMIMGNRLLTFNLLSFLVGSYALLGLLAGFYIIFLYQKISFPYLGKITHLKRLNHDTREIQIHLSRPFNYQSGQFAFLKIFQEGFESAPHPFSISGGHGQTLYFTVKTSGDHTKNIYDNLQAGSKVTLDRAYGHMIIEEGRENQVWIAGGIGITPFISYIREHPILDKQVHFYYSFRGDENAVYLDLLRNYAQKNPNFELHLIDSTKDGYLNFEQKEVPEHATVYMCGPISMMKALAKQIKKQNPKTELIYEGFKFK

[2] = test system: Cc1cc2nc3c(=O)[nH]c(=O)nc-3n(C[C@H](O)[C@H](O)[C@H](O)COP(=O)(O)OP(=O)(O)OC[C@H]3O[C@@H](n4cnc5c(N)ncnc54)[C@H](O)[C@@H]3O)c2cc1C; assay: purified protein; assay type: biochemical, Streptococcus pneumoniae; settings: 200 µM NADPH; cytochrome c 100 µM; Figure 3E; varied: cofactor
[3] = test system: NC(=O)C1=CN([C@@H]2O[C@H](COP(=O)(O)OP(=O)(O)OC[C@H]3O[C@@H](n4cnc5c(N)ncnc54)[C@H](OP(=O)(O)O)[C@@H]3O)[C@@H](O)[C@H]2O)C=CC1; assay: purified protein; assay type: biochemical, Streptococcus pneumoniae; settings: 10 µM FAD; cytochrome c 100 µM; Figure 3D

Molecule | pIC50 [1] | Km [2] [µM] | Km [3] [µM]
c1ccc2c(c1)[I+]c1ccccc1-2 [DPI] | ~5.30 | – | –
SpNOX (Streptococcus pneumoniae R6) | – | 0.13 | 8
